# Assay results: article PMC3475010 (BMC Structural Biology, 2012)
# Read-outs that look alike come from different tables or passages of the source.
# T1: StAckA (Salmonella typhimurium acetate kinase, AckA) (Salmonella enterica, UniProt P63411)
# T1 construct: expressed in E. coli; Ni-NTA and gel filtration; homodimer
# T1 sequence (P63411 1-400): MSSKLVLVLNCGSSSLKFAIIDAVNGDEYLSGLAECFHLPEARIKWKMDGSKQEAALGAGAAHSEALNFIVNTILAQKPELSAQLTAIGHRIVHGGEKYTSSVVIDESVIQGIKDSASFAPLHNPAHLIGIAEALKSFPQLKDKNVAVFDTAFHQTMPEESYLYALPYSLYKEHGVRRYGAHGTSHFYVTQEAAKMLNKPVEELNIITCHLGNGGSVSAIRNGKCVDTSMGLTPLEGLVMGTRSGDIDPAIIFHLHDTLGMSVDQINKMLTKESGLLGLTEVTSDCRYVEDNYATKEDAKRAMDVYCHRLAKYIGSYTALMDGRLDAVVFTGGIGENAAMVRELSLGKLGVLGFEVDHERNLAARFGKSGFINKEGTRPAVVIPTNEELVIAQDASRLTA
# B1: StAckA (Salmonella typhimurium acetate kinase, AckA) (Salmonella enterica subsp. enterica serovar Typhimurium str. LT2) (protein)
# chain: T1 sequence (P63411 1-400)
# notes: expressed in E. coli; Ni-NTA and gel filtration; homodimer
# Assays:
# [1] = molecular target: T1, StAckA (Salmonella typhimurium acetate kinase, AckA); experiment: kinetic assay after […] min preincubation at […] °C with inhibitor; type: biochemical
# [2] = molecular target: T1, StAckA (Salmonella typhimurium acetate kinase, AckA); experiment: CD thermal denaturation; type: binding; settings: ligand close to its Km, pH 7.5; unliganded reference Tm 45 °C
# [3] = molecular target: T1, StAckA (Salmonella typhimurium acetate kinase, AckA); experiment: initial velocity assay, acetyl-phosphate synthesis direction; type: biochemical; settings: co-substrate acetate, Mg2+, pH 7.5, 37 °C
# Text: (§1) initial velocity assay, acetyl-phosphate synthesis direction on StAckA (Salmonella typhimurium acetate kinase, AckA)
# [4] = molecular target: T1, StAckA (Salmonella typhimurium acetate kinase, AckA); experiment: X-ray crystal structure, […] Å; type: binding; settings: dimeric interface pocket, one citrate per dimer; citrate from crystallization condition
# [5] = molecular target: T1, StAckA (Salmonella typhimurium acetate kinase, AckA); experiment: CD thermal denaturation; type: binding; settings: read-out: dTm
# [6] = molecular target: T1, StAckA (Salmonella typhimurium acetate kinase, AckA); experiment: inhibition of acetate utilization, kinetic assay; type: biochemical; settings: equimolar to acetate; not a substrate
# [7] = substrate: CC(=O)O; experiment: purified protein; settings: ATP, Mg2+, pH 7.5, 37 °C
# [8] = substrate: CC(=O)OP(=O)(O)O; experiment: purified protein; type: biochemical, Salmonella enterica; settings: reverse reaction (ATP synthesis), ADP, Mg2+, pH 7.5, 37 °C
# [9] = substrate: CCC(=O)O; experiment: purified protein; type: biochemical, Salmonella enterica; settings: ATP, Mg2+, pH 7.5, 37 °C
# [10] = substrate: Nc1ncnc2c1ncn2[C@@H]1O[C@H](COP(=O)(O)OP(=O)(O)O)[C@@H](O)[C@H]1O; experiment: purified protein; type: biochemical, Salmonella enterica; settings: reverse reaction (ATP synthesis), acetyl-phosphate, Mg2+, pH 7.5, 37 °C
# [11] = substrate: Nc1ncnc2c1ncn2[C@@H]1O[C@H](COP(=O)(O)OP(=O)(O)OP(=O)(O)O)[C@@H](O)[C@H]1O; experiment: purified protein; type: biochemical, Salmonella enterica; settings: co-substrate acetate, Mg2+, pH 7.5, 37 °C
# [12] = substrate: Nc1nc2c(ncn2[C@@H]2O[C@H](COP(=O)(O)OP(=O)(O)OP(=O)(O)O)[C@@H](O)[C@H]2O)c(=O)[nH]1; experiment: initial velocity assay, acetyl-phosphate synthesis direction; type: biochemical, Salmonella enterica; settings: co-substrate acetate, Mg2+, pH 7.5, 37 °C
# Text: as §1
# [13] = substrate: O=c1ccn([C@@H]2O[C@H](COP(=O)(O)OP(=O)(O)OP(=O)(O)O)[C@@H](O)[C@H]2O)c(=O)[nH]1; experiment: as above; type: biochemical, Salmonella enterica; settings: co-substrate acetate, Mg2+, pH 7.5, 37 °C
# Text: as §1
molecule,measurement,setting,value
O=C(O)CCC(=O)C(=O)O [α-KG],IC50,[1]; read-out: kcat(s^-1),7 ± 1.8 mM
CC(=O)OP(=O)(O)O [Acetyl-phosphate],Tm,[2],54 °C
O=C(O)C[C@H](O)C(=O)O [Malate],IC50,[1]; read-out: [I],1 ± 0.5 mM
Nc1ccn([C@@H]2O[C@H](COP(=O)(O)OP(=O)(O)OP(=O)(O)O)[C@@H](O)[C@H]2O)c(=O)n1 [CTP],kcat/Km(s^-1 mM^-1),[3],88 ± 42 µM
"NCCC(N)C(=O)O (stereo not drawn) [2,4-DAB]",IC50,"[1]; read-out: kcat/Km(s^-1 mM^-1), saturating cognate ligand, 37 °C",5 ± 2.2 mM
O=C(O)CC(O)(CC(=O)O)C(=O)O [Citrate],"X-ray crystal structure, 1.90 Å",[4],only one citrate binds at the dimeric interface resulting in an asymmetric dimer
same,IC50,[1]; read-out: Km,63 ± 15 mM
same,ΔTm at 10000 µM,[5],10 °C
O=C(O)CCC(=O)O [Succinate],IC50,[1]; read-out: Vmax(μmol min^-1 mg^-1),75 ± 20 mM
CCCC(=O)O [butyrate],% reduction of rate at equimolar concentration,[6],40%
Nc1ncnc2c1ncn2[C@@H]1O[C@H](COP(=O)(O)OP(=O)(O)O)[C@@H](O)[C@H]1O [ADP],Tm,[2],52 °C
CCC(=O)C(=O)O [2-KB],IC50,[1]; read-out: [I],3 ± 1.3 mM
B1,Km,[7],1200 ± 100 µM
same,Vmax,[7],1560 µmol/min/mg
same,kcat/Km,[7],985000 M⁻¹ s⁻¹
same,Km,[8],280 ± 40 µM
same,Vmax,[8],2350 µmol/min/mg
same,kcat,[8],1760 ± 25 s⁻¹
same,kcat/Km,[8],6.3e+06 ± 45000 M⁻¹ s⁻¹
same,Km,[9],11200 ± 100 µM
same,Vmax,[9],1250 µmol/min/mg
same,kcat,[9],940 ± 85 s⁻¹
same,kcat/Km,[9],85000 ± 10000 M⁻¹ s⁻¹
same,Km,[10],100 ± 3 µM
same,Vmax,[10],2340 µmol/min/mg
same,kcat,[10],1750 ± 65 s⁻¹
same,kcat/Km,[10],1.7645e+07 ± 10000 M⁻¹ s⁻¹
same,Km,[11],70 ± 5 µM
same,Vmax,[11],1550 µmol/min/mg
same,kcat,[11],1170 ± 85 s⁻¹
same,kcat/Km,[11],1.686e+07 ± 50000 M⁻¹ s⁻¹
same,Km,[12],78 ± 27 µM
same,Km,[13],96 ± 58 µM
